For the assay, the target named is sodium taurocholate cotransporting polypeptide (NTCP) (UniProt Q14973). Briefly: cell-based or functional assay.

A value given as a limit tells only on which side of the number the result lay.

UniProt Q14973, sequence (Q14973 whole entry): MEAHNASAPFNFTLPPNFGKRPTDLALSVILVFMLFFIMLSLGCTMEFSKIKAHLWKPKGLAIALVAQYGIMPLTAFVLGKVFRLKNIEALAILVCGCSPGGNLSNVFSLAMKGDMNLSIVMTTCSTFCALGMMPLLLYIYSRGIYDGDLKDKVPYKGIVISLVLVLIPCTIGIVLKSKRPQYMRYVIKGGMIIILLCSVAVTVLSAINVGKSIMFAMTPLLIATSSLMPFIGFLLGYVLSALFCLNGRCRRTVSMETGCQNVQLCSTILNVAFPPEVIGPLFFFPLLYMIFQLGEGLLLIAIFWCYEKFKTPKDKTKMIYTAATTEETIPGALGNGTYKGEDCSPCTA

In the case of Myrcludex B (peptide), the DsRed-positive CreC/CIR cells by FACS, day 7 after rHBV-CreN infection (MOI=250) with MyrB was less than 1% and the DsRed-positive CreC/CIR cells by flow cytometry, day 10 after rHBV-CreN infection (MOI=300) with MyrB was less than 1%.

The values above are taken from patent US20200056171A1.
